Results published in patent US20230323410A1, “BACTERIAL CELLS AND METHODS FOR PRODUCTION OF 2-FLUORO-CIS,CIS-MUCONATE” (priority 2020, published 2023).

Tested on: msfGFP reporter gene under control of BCD10
Format: cell-based, P. putida KT2440
Conditions: 5 mM 3-FBz (inducible systems), 30 mM glucose, FIG. 6

B1: PEM7: constitutive promoter, SEQ ID NO: 59 (nucleic acid)
DNA: TTGTTGACAATTAATCATCGGCATAGTATATCGGCATAGTATAATACGACAAGGTGAGGAACTAAACC
modifications: expressed or natural sequence
For B1, the “transcription initiation rate: quotient of OD630 nm-normalized fluorescence with the one of Ptac” value was 0.57.
